The nature of data set [1]: JAK2 remaining soluble after ultracentrifugation (ELISA) / aggregation. The class given is physicochemical. The protocol: Recombinant JAK2 protein containing the Flag affinity label ([…]) [SEQ ID NO:20] was expressed in either SF9 or HI-5 cells as described. Cells were lysed by dounce homogenization (20 strokes) in 1X phosphate buffered saline (PBS), pH 7.5 at 4 C. Clarified extract was passed through an anti-Flag immunoaffinity column (Kodak, New Haven, Conn.) and purified recombinant JAK2 was eluted by competition with a solution of Flag peptide at a concentration of 250 ug/ml in 1×PBS. Purity was characterized by a single band on SDS polyacrylamide gels. For some experiments, the JAK2 protein (0.15 mg/ml), aliquoted into 7 equivalent tubes, was then subjected to ultracentrifugation in an Airfuge using an A-110 rotor at an average of 164,000×g for a period of 6 hours at ambient temperature. At zero time, and at each subsequent hour thereafter, a tube of JAK2 was removed for analyses (ELISA, SDS polyacrylamide gel electrophoresis, and Western blotting).
Aliquots of the above supernatants were removed and subjected to an ELISA assay. Each solution was diluted 1:50 with 0.1M sodium carbonate, pH 9.0, and applied in multiple concentrations to a 96 well plate. After an overnight incubation, each well was washed with 0.1% BSA in 1×PBS, pH 7.5 (wash buffer), followed by continued incubation for an additional hour at 4 C. The wells were then incubated with 150 ul of C20 anti-JAK2 antibody (Santa Cruz Biotechnology, Santa Cruz, Calif.) in wash buffer for 1 hour at 4 C., followed by extensive washes with wash buffer. Secondary antibody (150 ul of alkaline phosphatase labeled goat anti-rabbit IgG (Promega, Madison, Wis.) at a dilution of 1:2000) was applied for 1 hour at 4 C., followed by extensive washes with buffer. Finally, wells were incubated with 0.1 M Tris HCl, 5 mM MgCl2, pH 9.5, and then with the same buffer (150 ul) containing 5 mg/ml p-nitrophenylphosphate (pNPP). Color formation was read by a SpectraMax 250 plate reader set at an absorbance of 405 nm. The linear phase of each concentration curve was chosen for each of the time points (0,1,2,3,4,5,and 6 hours of ultracentrifugation) in order to calculate the relative amount of recombinant JAK2 remaining in the supernatant of each fraction.
To see whether more highly aggregated JAK2 could be separated by ultracentifugation from less aggregated or monomeric JAK2, a sample of freshly purified JAK2 at a defined concentration was centrifuged in an airfuge as described in Materials and Methods. Samples were taken at 7 different time points over a 6 hour period to assess the amount of JAK2 which remained in the supernatant phase. After 1 hour at 164,000×g, 40 to 50% of the original JAK2 was detected, a value which remained relatively constant for up to 5 additional hours in this experiment. […] Since the supernatant was removed from below the meniscus by pipetting, a determination of the molecular weight could not be established in this experiment.
(ELISA stands for enzyme-linked immunosorbent assay.)

In data set [2] the target is T1, human JAK2 (Homo sapiens, UniProt O60674).
T1 construct: NJAK2 = N-terminal 294 residues
The data set is described as follows: SPA: binding of 3H-JAK2 to βc peptides on streptavidin-coated beads. As to conditions: JAK2 from 32.5 nM to 16.25 nM; FIG. 14. As to the method:
Cells were lysed by dounce homogenization (20 strokes) in 1X phosphate buffered saline (PBS), pH 7.5 at 4 C. […] For some experiments, the JAK2 protein (0.15 mg/ml), aliquoted into 7 equivalent tubes, was then subjected to ultracentrifugation in an Airfuge using an A-110 rotor at an average of 164,000×g for a period of 6 hours at ambient temperature. At zero time, and at each subsequent hour thereafter, a tube of JAK2 was removed for analyses (ELISA, SDS polyacrylamide gel electrophoresis, and Western blotting).
Three different labeling reactions were done using ^3 H-N-succinimidyl propionate (^3 H-NSP, Amersham Life Sciences, Arlington Heights, Ill.). One reaction was done using 0.5 mg of purified JAK2 in 0.1 M borate buffer, pH 8.5, with a reaction volume of 150 μl and an incubation time of one hour on ice with dried 1 mCi of ^3 H-NSP (toluene was removed using a stream of nitrogen). […] Another reaction was done using the buffer 0.1 M sodium phosphate, pH 8.0, and a similar volume as before. One milligram of JAK2 in 1.2 ml of phosphate buffer was incubated for three hours on ice. […]
Triplicate reactions were done for each data point. […] The plates were then read on a MicroBeta (Wallac) set to read scintillation due to tritium.
Either ^3 H-JAK2 or ^3 H-NJAK2 was added to the wells and, after incubation, the signals measured. […]

For data set [3], the system named is peptide 4 (βc peptide) bound to SPA beads. As to the kind of experiment: SPA competition: unlabeled JAK2 against labeled JAK2/NJAK2 for peptide 4 bound to SPA beads. The class given is binding, human.

B1: JAK2: Recombinant JAK2 protein containing the Flag affinity label, expressed in SF9 or HI-5 cells (protein)
chain: MACLTMTEMEGTSTSSIYQNGDISGNANSMKQIDPVLQVYLYHSLGKSEADYLTFPSGEYVAEEICIAASKACGITPVYHNMFALMSETERIWYPPNHVFHIDESTRHNVLYRIRFYFPRWYCSGSNRAYRHGISRGAEAPLLDDFVMSYLFAQWRHDFVHGWIKVPVTHETQEECLGMAVLDMMRIAKENDQTPLAIYNSISYKTFLPKCIRAKIQDYHILTRKRIRYRFRRFIQQFSQCKATARNLKLKYLINLETLQSAFYTEKFEVKEPGSGPSGEEIFATIIITGNGGIQWSRGKHKESETLTEQDLQLYCDFPNIIDVSIKQANQEGSNESRVVTIHKQDGKNLEIELSSLREALSFVSLIDGYYRLTADAHHYLCKEVAPPAVLENIQSNCHGPISMDFAISKLKKAGNQTGLYVLRCSPKDFNKYFLTFAVERENVIEYKHCLITKNENEEYNLSGTKKNFSSLKDLLNCYQMETVRSDNIIFQFTKCCPPKPKDKSNLLVFRTNGVSDVPTSPTLQRPTHMNQMVFHKIRNEDLIFNESLGQGTFTKIFKGVRREVGDYGQLHETEVLLKVLDKAHRNYSESFFEAASMMSKLSHKHLVLNYGVCVCGDENILVQEFVKFGSLDTYLKKNKNCINILWKLEVAKQLAWAMHFLEENTLIHGNVCAKNILLIREEDRKTGNPPFIKLSDPGISITVLPKDILQERIPWVPPECIENPKNLNLATDKWSFGTTLWEICSGGDKPLSALDSQRKLQFYEDRHQLPAPKWAELANLINNCMDYEPDFRPSFRAIIRDLNSLFTPDYELLTENDMLPNMRIGALGFSGAFEDRDPTQFEERHLKFLQQLGKGNFGSVEMCRYDPLQDNTGEVVAVKKLQHSTEEHLRDFEREIEILKSLQHDNIVKYKGVCYSAGRRNLKLIMEYLPYGSLRDYLQKHKERIDHIKLLQYTSQICKGMEYLGTKRYIHRDLATRNILVENENRVKIGDFGLTKVLPQDKEYYKVKEPGESPIFWYAPESLTESKFSVASDVWSFGVVLYELFTYIEKSKSPPAEFMRMIGNDKQGQMIVFHLIELLKNNGRLPRPDGCPDEIYMIMTECWNNNVNQRPSFRDLALRVDQIRDNMAGDYKDDDDKN
modifications: Flag tag
B1: the “% JAK2 Remaining” value in data set [1] (0 hours ultracentrifugation) is 100%; in data set [1] (1 hour ultracentrifugation, 164,000×g), 46.0%; in data set [1] (2 hours ultracentrifugation, 164,000×g), 39.6%; in data set [1] (3 hours ultracentrifugation, 164,000×g) it was 32.5%; in data set [1] (4 hours ultracentrifugation, 164,000×g) it was 43.7%; in data set [1] (5 hours ultracentrifugation, 164,000×g), 44.1%. Further, the “% JAK2 Remaining” value in data set [1] (6 hours ultracentrifugation, 164,000×g) was determined as 41.3%. In addition, the “original JAK2 detected in supernatant” value in data set [1] (after 1 hour at 164,000×g, relatively constant up to 5 additional hours) lay in the range of 40 to 50%. Moreover, the “JAK2 remaining soluble as defined by ELISA” value in data set [1] (after ultracentrifugation) is 50%. In data set [1] (data not shown), the “aggregation by size exclusion chromatography” value was “exhibited degrees of aggregation”. The “signal obtained on lowering final JAK2 concentration” value in data set [2] is “decreases significantly”. Also, the “competition of labeled JAK2 binding” value in data set [3] (5-fold excess unlabeled JAK2, peptide 4) is reported as “competed significantly”. Also, in data set [3] (10-fold excess unlabeled JAK2, peptide 4), the “competition of labeled NJAK2 binding” value was “reduced almost to background”.

B2: JAK2 from the supernatant: supernatant after 1 hour of ultracentrifugation of JAK2 (protein, UniProt O60674 1-1132, looked up)
Tyrosine-protein kinase JAK2: MGMACLTMTEMEGTSTSSIYQNGDISGNANSMKQIDPVLQVYLYHSLGKSEADYLTFPSGEYVAEEICIAASKACGITPVYHNMFALMSETERIWYPPNHVFHIDESTRHNVLYRIRFYFPRWYCSGSNRAYRHGISRGAEAPLLDDFVMSYLFAQWRHDFVHGWIKVPVTHETQEECLGMAVLDMMRIAKENDQTPLAIYNSISYKTFLPKCIRAKIQDYHILTRKRIRYRFRRFIQQFSQCKATARNLKLKYLINLETLQSAFYTEKFEVKEPGSGPSGEEIFATIIITGNGGIQWSRGKHKESETLTEQDLQLYCDFPNIIDVSIKQANQEGSNESRVVTIHKQDGKNLEIELSSLREALSFVSLIDGYYRLTADAHHYLCKEVAPPAVLENIQSNCHGPISMDFAISKLKKAGNQTGLYVLRCSPKDFNKYFLTFAVERENVIEYKHCLITKNENEEYNLSGTKKNFSSLKDLLNCYQMETVRSDNIIFQFTKCCPPKPKDKSNLLVFRTNGVSDVPTSPTLQRPTHMNQMVFHKIRNEDLIFNESLGQGTFTKIFKGVRREVGDYGQLHETEVLLKVLDKAHRNYSESFFEAASMMSKLSHKHLVLNYGVCVCGDENILVQEFVKFGSLDTYLKKNKNCINILWKLEVAKQLAWAMHFLEENTLIHGNVCAKNILLIREEDRKTGNPPFIKLSDPGISITVLPKDILQERIPWVPPECIENPKNLNLATDKWSFGTTLWEICSGGDKPLSALDSQRKLQFYEDRHQLPAPKWAELANLINNCMDYEPDFRPSFRAIIRDLNSLFTPDYELLTENDMLPNMRIGALGFSGAFEDRDPTQFEERHLKFLQQLGKGNFGSVEMCRYDPLQDNTGEVVAVKKLQHSTEEHLRDFEREIEILKSLQHDNIVKYKGVCYSAGRRNLKLIMEYLPYGSLRDYLQKHKERIDHIKLLQYTSQICKGMEYLGTKRYIHRDLATRNILVENENRVKIGDFGLTKVLPQDKEYYKVKEPGESPIFWYAPESLTESKFSVASDVWSFGVVLYELFTYIEKSKSPPAEFMRMIGNDKQGQMIVFHLIELLKNNGRLPRPDGCPDEIYMIMTECWNNNVNQRPSFRDLALRVDQIRDNMAG
B2: in data set [3] (inferred from competition of supernatant, FIG. 18), the “apparent Kd versus more aggregated JAK2” value is listed as “higher apparent Kd than the more aggregated JAK2”. Further, the “competition with labeled JAK2 versus starting material” value in data set [3] (supernatant after ultracentrifugation, peptide 4 on beads, FIG. 18) was “competed less effectively than the starting material”.

Source of the values: patent US6187552A, “Method for identifying inhibitors of JAK2/cytokine receptor binding” (Pharmacia & Upjohn Company, priority 1998, dated 2001).
